Assay results taken from PMC6819821, “Interaction of Cholesterol With the Human SLC1A5 (ASCT2): Insights Into Structure/Function Relationships” (Frontiers in Molecular Biosciences, 2019).

Columns and labels:
[1] = target: the molecule itself; assay: cross-linking; intact HeLa cells treated with 0.75% formaldehyde for 10 min at room temperature, stopped with 125 mM glycine; 50 ug total lysate on 8% SDS-PAGE, immunoblot with anti-hASCT2
[2] = target: the molecule itself; assay: cross-linking; purified WT hASCT2 in detergent, without or with 0.75 mg CHEMS, 1 or 4% formaldehyde in 20 mM Tris HCl pH 9.0 for 2 min at 23°C, stopped with 1.25 M glycine; 8% SDS-PAGE, immunoblot with anti-hASCT2

Protein | stoichiometry N [1] | stoichiometry N [2]
human SLC1A5 (ASCT2), endogenous in HeLa cells (natural protein, human (endogenous in HeLa), UniProt Q15758 1-541, looked up, ASCT2 (SLC1A5), sodium-dependent neutral amino acid antiporter, endogenous in HeLa cells; Detected with anti-hASCT2 (rabbit, Millipore) after formaldehyde cross-linking of intact cells; also called hASCT2; source: endogenous, intact HeLa cells (cross-linked in the cells, then total lysate)) MVADPPRDSKGLAAAEPTANGGLALASIEDQGAAAGGYCGSRDQVRRCLRANLLVLLTVVAVVAGVALGLGVSGAGGALALGPERLSAFVFPGELLLRLLRMIILPLVVCSLIGGAASLDPGALGRLGAWALLFFLVTTLLASALGVGLALALQPGAASAAINASVGAAGSAENAPSKEVLDSFLDLARNIFPSNLVSAAFRSYSTTYEERNITGTRVKVPVGQEVEGMNILGLVVFAIVFGVALRKLGPEGELLIRFFNSFNEATMVLVSWIMWYAPVGIMFLVAGKIVEMEDVGLLFARLGKYILCCLLGHAIHGLLVLPLIYFLFTRKNPYRFLWGIVTPLATAFGTSSSSATLPLMMKCVEENNGVAKHISRFILPIGATVNMDGAALFQCVAAVFIAQLSQQSLDFVKIITILVTATASSVGAAGIPAGGVLTLAIILEAVNLPVDHISLILAVDWLVDRSCTVLNVEGDALGAGLLQNYVDRTESRSTEPELIQVKSELPLDPLPVPTEEGNPLLKHYRGPAGDATVASEKESVM | 3 | –
recombinant hASCT2-6His WT (natural protein, human, human ASCT2 (SLC1A5), wild type, construct pPICZB-ASCT2-6His; no cleavage of the tag is described; In the cross-linking the protein was detected with anti-hASCT2; also called purified WT hASCT2; SLC1A5; source: P. pastoris X-33 (pPICZB-ASCT2-6His), solubilised in C12E8, purified (Ni-NTA, PD-10)) MVADPPRDSKGLAAAEPTANGGLALASIEDQGAAAGGYCGSRDQVRRCLRANLLVLLTVVAVVAGVALGLGVSGAGGALALGPERLSAFVFPGELLLRLLRMIILPLVVCSLIGGAASLDPGALGRLGAWALLFFLVTTLLASALGVGLALALQPGAASAAINASVGAAGSAENAPSKEVLDSFLDLARNIFPSNLVSAAFRSYSTTYEERNITGTRVKVPVGQEVEGMNILGLVVFAIVFGVALRKLGPEGELLIRFFNSFNEATMVLVSWIMWYAPVGIMFLVAGKIVEMEDVGLLFARLGKYILCCLLGHAIHGLLVLPLIYFLFTRKNPYRFLWGIVTPLATAFGTSSSSATLPLMMKCVEENNGVAKHISRFILPIGATVNMDGAALFQCVAAVFIAQLSQQSLDFVKIITILVTATASSVGAAGIPAGGVLTLAIILEAVNLPVDHISLILAVDWLVDRSCTVLNVEGDALGAGLLQNYVDRTESRSTEPELIQVKSELPLDPLPVPTEEGNPLLKHYRGPAGDATVASEKESVM | – | 3
